Experimental data reported in PMC3564526 (Molecular Biology of the Cell, 2013).

Molecular target: T1, PH^Ste5 domain (Ste5 aa 373–537), bacterially expressed and purified (S. cerevisiae, UniProt P32917 373-537)
T1 sequence (looked up): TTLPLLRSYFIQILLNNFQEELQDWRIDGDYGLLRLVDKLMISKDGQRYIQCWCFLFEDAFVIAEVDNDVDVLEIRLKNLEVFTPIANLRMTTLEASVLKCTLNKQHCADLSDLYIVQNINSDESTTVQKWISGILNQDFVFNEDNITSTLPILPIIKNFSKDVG
Test: SPR

B1: His-tagged RBL^Ste11 domain (Ste11 aa 116–236) (domain or fragment, S. cerevisiae, UniProt P23561 116-236, looked up)
chain: PEKHCVIFILNDGSAKKVNVNGCFNADSIKKRLIRRLPHELLATNSNGEVTKMVQDYDVFVLDYTKNVLHLLYDVELVTICHANDRVEKNRLIFVSKDQTPSDKAISTSKKLYLRTLSALS
B1 was tested, and the Kd was roughly 200 nM.
